Assay results as given in US5459063A, “Plasmodium falciparum ribonucleotide reductase DNA” (priority 1993, dated 1995).
Read-outs that look alike come from different tables or passages of the source. Ends that are not written are not given here.

T1: human RR (Homo sapiens, UniProt P23921)
T1 sequence (P23921 1-792): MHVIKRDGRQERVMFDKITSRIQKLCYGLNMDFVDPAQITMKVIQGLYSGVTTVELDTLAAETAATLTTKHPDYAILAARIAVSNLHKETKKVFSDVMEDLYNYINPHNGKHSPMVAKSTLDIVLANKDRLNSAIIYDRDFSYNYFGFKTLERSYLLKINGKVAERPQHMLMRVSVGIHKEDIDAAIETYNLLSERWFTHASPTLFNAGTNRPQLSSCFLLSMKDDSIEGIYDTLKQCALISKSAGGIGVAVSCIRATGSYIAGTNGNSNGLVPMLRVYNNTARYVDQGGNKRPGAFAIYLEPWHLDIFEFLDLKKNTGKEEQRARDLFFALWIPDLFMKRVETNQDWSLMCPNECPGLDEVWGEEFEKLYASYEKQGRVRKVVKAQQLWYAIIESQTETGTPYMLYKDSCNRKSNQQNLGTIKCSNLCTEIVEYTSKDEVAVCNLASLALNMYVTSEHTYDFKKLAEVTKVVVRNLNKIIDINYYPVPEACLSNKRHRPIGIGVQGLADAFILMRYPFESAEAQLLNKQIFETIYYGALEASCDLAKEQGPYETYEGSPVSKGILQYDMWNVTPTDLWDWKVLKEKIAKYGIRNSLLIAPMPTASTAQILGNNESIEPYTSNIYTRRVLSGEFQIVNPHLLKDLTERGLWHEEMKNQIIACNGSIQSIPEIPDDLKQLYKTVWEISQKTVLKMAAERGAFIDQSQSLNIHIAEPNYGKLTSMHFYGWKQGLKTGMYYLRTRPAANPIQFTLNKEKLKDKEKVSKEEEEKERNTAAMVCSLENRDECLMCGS

T2: calf thymus/mouse ribonucleotide reductase (mammalian RR) (Bos taurus, UniProt Q32LP1)
T2 sequence (Q32LP1 1-791): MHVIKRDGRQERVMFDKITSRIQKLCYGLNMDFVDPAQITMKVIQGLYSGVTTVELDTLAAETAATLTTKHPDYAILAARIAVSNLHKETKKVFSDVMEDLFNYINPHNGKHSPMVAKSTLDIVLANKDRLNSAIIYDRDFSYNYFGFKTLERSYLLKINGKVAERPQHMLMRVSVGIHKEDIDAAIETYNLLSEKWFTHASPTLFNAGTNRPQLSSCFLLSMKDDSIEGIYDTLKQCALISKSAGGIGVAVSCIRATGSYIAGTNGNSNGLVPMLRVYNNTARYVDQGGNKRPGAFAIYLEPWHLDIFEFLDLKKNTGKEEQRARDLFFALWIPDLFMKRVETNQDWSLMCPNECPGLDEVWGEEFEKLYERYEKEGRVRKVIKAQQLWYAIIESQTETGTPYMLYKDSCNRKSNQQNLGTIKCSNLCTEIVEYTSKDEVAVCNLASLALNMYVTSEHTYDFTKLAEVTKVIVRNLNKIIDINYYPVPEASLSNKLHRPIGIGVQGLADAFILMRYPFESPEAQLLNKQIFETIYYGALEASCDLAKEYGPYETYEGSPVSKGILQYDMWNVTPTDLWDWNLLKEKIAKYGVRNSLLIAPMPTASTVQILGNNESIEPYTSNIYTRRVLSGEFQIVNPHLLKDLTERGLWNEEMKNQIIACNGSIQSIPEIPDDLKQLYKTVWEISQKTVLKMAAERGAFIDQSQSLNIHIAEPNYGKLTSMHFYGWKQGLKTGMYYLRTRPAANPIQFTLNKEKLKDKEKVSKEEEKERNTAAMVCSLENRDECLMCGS


Tests used:
[1] = molecular target: T1, human RR; conditions: background, "about"; cited from earlier work
[2] = molecular target: T2, calf thymus/mouse ribonucleotide reductase (mammalian RR); experiment: biochemical
Description: From two to four assays were run

[3] = molecular target: S. cerevisiae (yeast) RR (S. cerevisiae)
[4] = molecular target: calf thymus R1 (calf)
[5] = molecular target: calf thymus R1 (calf); remark: listed apart in the source
[6] = molecular target: calf thymus R1 (calf); remark: listed apart in the source

Molecule	IC50, inhibition of Yeast RR activity [3]	IC50, inhibition of mammalian RR activity [4]	Percent RI (percent relative inhibitory potency), mammalian RR activity [4]	other results
Ac-FTLDADF [Peptide 4, Ac- (FTLDADF), reference compound]				IC50 [1]: 10 to 20 µM; IC50 [2]: 8 to 20 µM; IC50 ([2]; IC50, Mammalian RR, Table 5, mammalian RR, Dixon plots): 8 to 20 µM; IC50 ([2]; IC50 on mammalian RR activity, Example 54 text, peptide bound to purified calf thymus R1 before adding recombinant mouse R2): 10 to 20 µM
Ac-AGAFTFNEDF	25 µM			
Ac-FTLDDF [Ac-(FTLDDF) (3 pos. del.)]		322 µM	3%	
Ac-FTLDAAF [Ac-(FTLDAAF)]			28%	
Ac-FTLDANF [Ac-(FTLDANF)]			23%	
Ac-FTFNEDF [Ac-(FTFNEDF)]	25 µM			IC50, inhibition of mammalian RR activity [5]: 100 µM
Ac-NSFTLDADF			100%	
Ac-FTLDF [Ac-(FTLDF) (3 & 4 pos. del.)]			2.5%	
Ac-FTLDADFAA		500 µM	2.1%	
Ac-TFNEDF [Ac-(TFNEDF)]	600 µM			IC50, inhibition of mammalian RR activity [5]: 600 µM
Ac-FTLDADL [Ac-(FTLDADL)]		> 400 µM	< 3%	
Ac-FLDADF [Ac-(FLDADF) (6 pos. del.)]		412 µM	2.5%	
Ac-FTLDADF [Ac-(FTLDADF)]	25 µM		100%	IC50, inhibition of mammalian RR activity [6]: 10 to 20 µM
